Measurements published in doi:10.1101/391656 (bioRxiv, 2018).

Target: V1ΔC (S. cerevisiae, UniProt P17255 2-283; P17255 738-1071; P16140 1-517; P32610 1-256; P22203 1-233; P39111 …)
Assay: BLI

Kd: ~0.7 nM
B1: MBP-C (natural protein, S. cerevisiae, UniProt P31412 1-392, looked up)
chain: MATALYTANDFILISLPQNAQPVTAPGSKTDSWFNETLIGGRAFVSDFKIPEFKIGSLDTLIVESEELSKVDNQIGASIGKIIEILQGLNETSTNAYRTLPINNMPVPEYLENFQWQTRKFKLDKSIKDLITLISNESSQLDADVRATYANYNSAKTNLAAAERKKTGDLSVRSLHDIVKPEDFVLNSEHLTTVLVAVPKSLKSDFEKSYETLSKNVVPASASVIAEDAEYVLFNVHLFKKNVQEFTTAAREKKFIPREFNYSEELIDQLKKEHDSAASLEQSLRVQLVRLAKTAYVDVFINWFHIKALRVYVESVLRYGLPPHFNIKIIAVPPKNLSKCKSELIDAFGFLGGNAFMKDKKGKINKQDTSLHQYASLVDTEYEPFVMYIINL
